Experimental data from US7087392B2, “Antiproliferative SgK reagents and methods” (The Regents of the University of California, priority 1999, dated 2006).

Columns and labels:
mammary tumor cells = assay: Transient cell foci growth assay of transfected mammary tumor cells; format: cell-based; settings: transfected expression vector, G418 selection
From the text: Functional evidence for a direct role of sgk in the glucocorticoid anti-proliferative pathway. In both the Con8 mammary epithelial tumor cells (from which Sgk was originally cloned) as well as human MCF-7 breast cancer cells (which were originally derived from a pleural effusion of a metastatic human breast adenocarcinoma) glucocorticoids induce a G1 block in cell cycle progression and strongly stimulate sgk transcript and protein production. […] To initially test whether Sgk has an anti-proliferative function and perhaps mediates the glucocorticoid growth inhibitory response, the full length rat or human wild type sgk cDNA was inserted downstream of the cytomegalovirus (CMV) promoter in an expression vector that also encodes the neomycin resistance gene. […] Transfection competent cells were selected in 0.5 mg/ml of the G418 neomycin derivative for two weeks.
Expression vectors encoding several point mutants or truncations of Sgk were transfected into the mammary tumor cells and cell growth monitored by the cell foci assay.
Transient transfection and rapid screen of the sgk expression vectors for the anti-proliferative response in rodent and human mammary tumor cells. A transient cell foci growth assay is employed to rapidly screen the various Sgk constructs to define the domains that mediate the anti-proliferative response in rat and human mammary tumor cells using our optimized conditions. The advantage of this assay is that many different mutant Sgk expression vectors can be simultaneously compared for their growth inhibitory effects. Also, this assay can be used to rapidly assess the proliferative effects of combinations of Sgk and its interacting proteins or substrates. Populations of human MCF-7 breast cancer cells or rat Con8 mammary tumor cells are transfected by the lipofectin transfection procedures and cultured in normally cytotoxic concentrations (750 μg/ml) of the G418 neomycin derivative to recover transfection competent cells. Approximately 5000 transfected cells are cultured as colonies on plastic, and after one to two weeks are fixed and stained in crystal violet/formalin to visualize the cell colonies. The effects on cell proliferation are quantitated by simply counting the resulting cell colonies or by scanning the total cell density on each plate. To provide a control for the fidelity of the cell foci assays, in each experiment, cells transfected with the control vectors (no Sgk sequences) are treated with or without 1 μM dexamethasone because the cells are growth suppressed by this synthetic glucocorticoid. […]

mammary epithelial cells = assay: Co-staining for ectopically expressed Sgk and apoptotic cells (TUNEL fluorescence assay); format: cell-based; settings: after hyperosmotic stress, ectopic expression

B1: K127M: Sgk with lysine 127 in the ATP binding domain substituted with methionine; kinase dead (protein, UniProt O00141 1-431, looked up, variant K127M)
Serine/threonine-protein …: MTVKTEAAKGTLTYSRMRGMVAILIAFMKQRRMGLNDFIQKIANNSYACKHPEVQSILKISQPQEPELMNANPSPPPSPSQQINLGPSSNPHAKPSDFHFLKVIGKGSFGKVLLARHKAEEVFYAVMVLQKKAILKKKEEKHIMSERNVLLKNVKHPFLVGLHFSFQTADKLYFVLDYINGGELFYHLQRERCFLEPRARFYAAEIASALGYLHSLNIVYRDLKPENILLDSQGHIVLTDFGLCKENIEHNSTTSTFCGTPEYLAPEVLHKQPYDRTVDWWCLGAVLYEMLYGLPPFYSRNTAEMYDNILNKPLQLKPNITNSARHLLEGLLQKDRTKRLGAKDDFMEIKSHVFFSLINWDDLINKKITPPFNPNVSGPNDLRHFDPEFTEEPVPNSIGKSPDSVLVTASVKEAAEAFLGFSYAPPTDSFL
B1 was tested, and the “reduction in number of cell foci compared to the vector control” value (mammary tumor cells) was ~2.5 fold and the “correlation between Sgk positive and TUNEL positive cells” value (mammary epithelial cells) was ~55%.
